Measurements published in US10562947B2, “Compositions and methods for preventing or treating diseases, conditions or processes characterized by aberrant fibroblast proliferation and extracellular matrix deposition” (MOERAE MATRIX, INC., priority 2011, dated 2020).

Columns and labels:
Assay in all cases: Kinase Profiling Assay
Assay type in all cases: biochemical
Details in all cases: 100 μM peptide
CDK6/cyclinD3(h) = CDK6/cyclinD3(h) (Homo sapiens, UniProt Q00534)
Method in brief: (§1)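 MK2 inhibitory peptides were screened for specificity across a commercial panel of 266 human kinases, and each kinase activity measurement was run in duplicate.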

cKit(V654A)(h) = cKit(V654A)(h) (Homo sapiens, UniProt P10721, V654A)
Method in brief: as §1

Mnk2(h) = Mnk2(h) (Homo sapiens, UniProt Q9HBH9)
Method in brief: as §1

PTK5(h) = target: T1, PTK5(h) (Homo sapiens, UniProt P42685)
T1 construct: purchased Millipore (IC50 Profiler Express service)
Method in brief: as §1

IKKα(h) = target: T2, IKKα(h) (Homo sapiens, UniProt O15111)
T2 construct: purchased Millipore
T2 sequence (O15111 1-745): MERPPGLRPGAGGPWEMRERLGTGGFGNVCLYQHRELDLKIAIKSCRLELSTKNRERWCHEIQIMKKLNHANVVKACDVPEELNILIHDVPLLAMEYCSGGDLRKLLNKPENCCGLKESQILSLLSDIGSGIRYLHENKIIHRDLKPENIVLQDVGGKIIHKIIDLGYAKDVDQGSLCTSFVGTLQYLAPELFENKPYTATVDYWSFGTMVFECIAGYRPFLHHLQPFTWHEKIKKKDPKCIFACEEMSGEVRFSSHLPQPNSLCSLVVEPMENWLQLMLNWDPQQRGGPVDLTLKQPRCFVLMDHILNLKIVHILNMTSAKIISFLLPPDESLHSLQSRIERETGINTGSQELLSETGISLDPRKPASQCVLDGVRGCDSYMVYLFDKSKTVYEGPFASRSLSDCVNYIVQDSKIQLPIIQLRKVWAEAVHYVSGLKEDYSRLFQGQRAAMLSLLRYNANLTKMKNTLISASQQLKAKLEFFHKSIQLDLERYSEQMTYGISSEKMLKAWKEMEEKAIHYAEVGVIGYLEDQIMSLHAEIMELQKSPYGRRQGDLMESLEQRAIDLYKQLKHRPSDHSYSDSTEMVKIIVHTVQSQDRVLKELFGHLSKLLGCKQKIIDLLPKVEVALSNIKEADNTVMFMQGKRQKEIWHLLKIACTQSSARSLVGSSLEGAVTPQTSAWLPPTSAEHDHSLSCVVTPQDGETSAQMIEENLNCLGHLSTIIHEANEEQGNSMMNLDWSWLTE
Method in brief: as §1

SAPK2a(T106M)(h) = SAPK2a(T106M)(h) (Homo sapiens, UniProt Q16539, T106M)
Method in brief: as §1

PKCμ(h) = target: T3, PKCμ(h) (Homo sapiens, UniProt Q15139)
T3 construct: purchased Millipore (IC50 Profiler Express service)
T3 sequence (Q15139 1-912): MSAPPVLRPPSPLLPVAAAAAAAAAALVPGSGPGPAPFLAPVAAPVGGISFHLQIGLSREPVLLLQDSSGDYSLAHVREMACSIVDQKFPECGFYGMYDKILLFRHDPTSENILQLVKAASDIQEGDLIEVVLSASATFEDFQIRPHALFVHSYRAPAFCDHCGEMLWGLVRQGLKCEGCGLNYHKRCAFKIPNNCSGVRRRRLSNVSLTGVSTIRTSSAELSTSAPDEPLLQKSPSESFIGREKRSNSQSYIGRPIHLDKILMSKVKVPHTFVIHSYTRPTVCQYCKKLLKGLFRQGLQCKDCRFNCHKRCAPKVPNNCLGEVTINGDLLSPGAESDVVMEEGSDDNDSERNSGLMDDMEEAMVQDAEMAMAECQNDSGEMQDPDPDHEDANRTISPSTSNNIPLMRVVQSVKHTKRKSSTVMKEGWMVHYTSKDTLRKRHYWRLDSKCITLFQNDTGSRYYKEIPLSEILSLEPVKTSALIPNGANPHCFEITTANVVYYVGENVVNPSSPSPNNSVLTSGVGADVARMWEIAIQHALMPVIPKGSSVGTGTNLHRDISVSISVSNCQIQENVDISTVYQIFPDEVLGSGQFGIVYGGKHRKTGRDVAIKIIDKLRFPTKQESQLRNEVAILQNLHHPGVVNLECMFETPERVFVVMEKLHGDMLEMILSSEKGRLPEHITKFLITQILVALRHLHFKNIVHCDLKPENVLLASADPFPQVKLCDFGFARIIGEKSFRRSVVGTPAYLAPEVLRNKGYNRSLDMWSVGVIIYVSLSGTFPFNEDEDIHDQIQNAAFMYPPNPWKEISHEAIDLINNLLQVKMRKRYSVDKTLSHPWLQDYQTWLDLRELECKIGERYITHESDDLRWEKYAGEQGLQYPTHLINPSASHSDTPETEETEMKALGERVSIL
Method in brief: as §1

Bmx(h) = target: T4, Bmx(h) (Homo sapiens, UniProt P51813)
T4 sequence (P51813 1-675): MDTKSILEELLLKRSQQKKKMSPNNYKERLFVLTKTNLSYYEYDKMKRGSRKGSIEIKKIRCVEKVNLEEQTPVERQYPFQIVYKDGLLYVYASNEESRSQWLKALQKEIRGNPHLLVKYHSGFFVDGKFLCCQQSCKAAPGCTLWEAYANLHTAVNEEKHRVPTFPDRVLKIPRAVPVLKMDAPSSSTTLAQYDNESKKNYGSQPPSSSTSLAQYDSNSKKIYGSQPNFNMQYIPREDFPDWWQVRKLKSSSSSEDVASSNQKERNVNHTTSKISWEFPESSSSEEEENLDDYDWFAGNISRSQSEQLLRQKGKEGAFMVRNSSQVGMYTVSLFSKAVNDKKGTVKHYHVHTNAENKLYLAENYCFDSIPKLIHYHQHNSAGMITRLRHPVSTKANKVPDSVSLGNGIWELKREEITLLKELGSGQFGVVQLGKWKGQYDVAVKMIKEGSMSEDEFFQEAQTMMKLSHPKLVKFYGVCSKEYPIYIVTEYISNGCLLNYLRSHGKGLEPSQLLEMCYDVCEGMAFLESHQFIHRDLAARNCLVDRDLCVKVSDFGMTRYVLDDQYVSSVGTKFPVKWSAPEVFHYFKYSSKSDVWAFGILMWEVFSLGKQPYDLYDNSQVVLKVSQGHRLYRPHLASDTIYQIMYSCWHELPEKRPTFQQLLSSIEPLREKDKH
Method in brief: as §1

Met(Y1248D)(h) = Met(Y1248D)(h) (Homo sapiens, UniProt P08581, Y1230D)
Method in brief: as §1

T1 sequence (P42685 whole entry): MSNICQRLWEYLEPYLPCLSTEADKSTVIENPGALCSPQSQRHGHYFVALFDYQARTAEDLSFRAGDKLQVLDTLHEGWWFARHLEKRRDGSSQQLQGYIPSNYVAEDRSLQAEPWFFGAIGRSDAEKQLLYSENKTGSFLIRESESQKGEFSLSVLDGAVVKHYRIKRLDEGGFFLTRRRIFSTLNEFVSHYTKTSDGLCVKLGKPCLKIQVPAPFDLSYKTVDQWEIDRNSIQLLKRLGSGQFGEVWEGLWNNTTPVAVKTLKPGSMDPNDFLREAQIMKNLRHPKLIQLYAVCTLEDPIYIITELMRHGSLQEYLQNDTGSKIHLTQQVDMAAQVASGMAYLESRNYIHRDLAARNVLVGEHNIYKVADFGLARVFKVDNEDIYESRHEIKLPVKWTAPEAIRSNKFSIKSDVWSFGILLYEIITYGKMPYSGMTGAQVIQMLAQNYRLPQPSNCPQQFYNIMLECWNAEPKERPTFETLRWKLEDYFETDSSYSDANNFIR
Mnk2(h), sequence (Q9HBH9 whole entry): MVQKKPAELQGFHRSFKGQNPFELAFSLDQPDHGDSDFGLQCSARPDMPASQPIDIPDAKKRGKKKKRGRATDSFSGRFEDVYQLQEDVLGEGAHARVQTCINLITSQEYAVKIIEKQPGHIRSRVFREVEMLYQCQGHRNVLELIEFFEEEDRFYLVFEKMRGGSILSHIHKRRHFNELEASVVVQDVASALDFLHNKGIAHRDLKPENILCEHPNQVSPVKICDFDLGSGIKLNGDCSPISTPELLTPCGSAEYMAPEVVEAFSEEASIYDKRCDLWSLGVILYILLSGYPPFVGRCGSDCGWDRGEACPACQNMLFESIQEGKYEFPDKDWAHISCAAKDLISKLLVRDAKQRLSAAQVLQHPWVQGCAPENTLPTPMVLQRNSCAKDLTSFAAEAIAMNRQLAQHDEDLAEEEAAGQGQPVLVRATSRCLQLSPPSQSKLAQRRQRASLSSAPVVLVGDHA
SAPK2a(T106M)(h), sequence (Q16539 whole entry T106M): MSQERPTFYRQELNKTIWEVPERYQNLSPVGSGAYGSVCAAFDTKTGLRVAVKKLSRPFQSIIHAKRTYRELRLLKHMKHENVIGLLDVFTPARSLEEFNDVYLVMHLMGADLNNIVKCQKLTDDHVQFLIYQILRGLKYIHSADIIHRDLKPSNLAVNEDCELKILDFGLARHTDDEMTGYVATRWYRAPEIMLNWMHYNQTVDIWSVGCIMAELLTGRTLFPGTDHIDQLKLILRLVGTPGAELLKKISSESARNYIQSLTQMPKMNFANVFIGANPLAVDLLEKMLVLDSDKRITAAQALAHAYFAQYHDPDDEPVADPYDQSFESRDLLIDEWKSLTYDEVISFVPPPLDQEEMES
CDK6/cyclinD3(h), sequence (Q00534 whole entry): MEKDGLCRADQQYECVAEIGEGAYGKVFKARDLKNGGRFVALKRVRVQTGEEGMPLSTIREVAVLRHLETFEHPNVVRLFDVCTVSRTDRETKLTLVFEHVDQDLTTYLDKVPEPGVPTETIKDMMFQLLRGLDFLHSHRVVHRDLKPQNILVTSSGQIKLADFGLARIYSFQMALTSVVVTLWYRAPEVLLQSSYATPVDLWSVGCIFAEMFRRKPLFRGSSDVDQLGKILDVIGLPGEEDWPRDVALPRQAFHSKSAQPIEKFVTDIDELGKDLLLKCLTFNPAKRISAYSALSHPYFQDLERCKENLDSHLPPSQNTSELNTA
CDK6/cyclinD3(h), sequence (P30281 whole entry partner): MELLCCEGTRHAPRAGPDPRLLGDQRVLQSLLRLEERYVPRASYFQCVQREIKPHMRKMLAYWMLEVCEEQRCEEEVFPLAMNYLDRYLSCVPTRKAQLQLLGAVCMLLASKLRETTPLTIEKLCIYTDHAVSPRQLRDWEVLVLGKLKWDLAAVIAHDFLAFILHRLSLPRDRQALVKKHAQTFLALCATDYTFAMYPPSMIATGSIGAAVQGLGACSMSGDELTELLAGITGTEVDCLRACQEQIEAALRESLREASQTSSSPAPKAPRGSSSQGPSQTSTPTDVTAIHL

FAKLAARLYRKALARQLGVAA [MMI-0300]
CDK6/cyclinD3(h) % activity (CDK6/cyclinD3(h)): 86% | cKit(V654A)(h) % activity (cKit(V654A)(h)): 134% | Mnk2(h) % activity (Mnk2(h)): 89% | PTK5(h) % activity (PTK5(h)): 132% | IKKα(h) % activity (IKKα(h)): 93% | SAPK2a(T106M)(h) % activity (SAPK2a(T106M)(h)): 97% | PKCμ(h) % activity (PKCμ(h)): 22%

HRRIKAWLKKIKALARQLGVAA (Mammalian) [MMI-0500]
Bmx(h) % activity (Bmx(h)): 45% | CDK6/cyclinD3(h) % activity (CDK6/cyclinD3(h)): 23% | cKit(V654A)(h) % activity (cKit(V654A)(h)): 223% | Mnk2(h) % activity (Mnk2(h)): 6% | PTK5(h) % activity (PTK5(h)): 96% | IKKα(h) % activity (IKKα(h)): 50% | Met(Y1248D)(h) % activity (Met(Y1248D)(h)): 218% | SAPK2a(T106M)(h) % activity (SAPK2a(T106M)(h)): 32% | PKCμ(h) % activity (PKCμ(h)): 10%

KAFAKLAARLYRKALARQLGVAA [MMI-0400]
Bmx(h) % activity (Bmx(h)): 26% | CDK6/cyclinD3(h) % activity (CDK6/cyclinD3(h)): 85% | cKit(V654A)(h) % activity (cKit(V654A)(h)): 150% | Mnk2(h) % activity (Mnk2(h)): 86% | PTK5(h) % activity (PTK5(h)): 129% | IKKα(h) % activity (IKKα(h)): 87% | Met(Y1248D)(h) % activity (Met(Y1248D)(h)): 31% | SAPK2a(T106M)(h) % activity (SAPK2a(T106M)(h)): 99% | PKCμ(h) % activity (PKCμ(h)): 14%

YARAAARQARAKALNRQLGVA (Mammalian) [MMI-0200]
Bmx(h) % activity (Bmx(h)): 76% | CDK6/cyclinD3(h) % activity (CDK6/cyclinD3(h)): 100% | PTK5(h) % activity (PTK5(h)): 108% | Met(Y1248D)(h) % activity (Met(Y1248D)(h)): 118% | SAPK2a(T106M)(h) % activity (SAPK2a(T106M)(h)): 100% | PKCμ(h) % activity (PKCμ(h)): 73%
